Experimental findings from paper PMC4638040 are described below.

Assay [1] addresses T1, Carboxy-terminus of Hsc70-interacting protein (CHIP), untagged, K30A mutant (human), Q9UNE7.
T1 chain: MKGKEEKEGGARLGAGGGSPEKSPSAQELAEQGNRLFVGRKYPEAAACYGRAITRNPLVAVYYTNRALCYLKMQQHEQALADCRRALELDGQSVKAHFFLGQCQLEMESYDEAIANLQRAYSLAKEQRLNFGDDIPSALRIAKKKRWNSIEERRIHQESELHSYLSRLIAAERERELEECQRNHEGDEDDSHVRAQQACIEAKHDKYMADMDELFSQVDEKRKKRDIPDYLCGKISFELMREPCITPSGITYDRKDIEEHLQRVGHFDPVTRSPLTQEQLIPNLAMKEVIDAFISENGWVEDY
Kind of assay: SEC + other: dynamic light scattering; purified CHIP-K30A; supplemental Fig. S2C, S2D (not shown). The following applies: remark: other sources report otherwise.

The target of assay [2] is T2, Carboxy-terminus of Hsc70-interacting protein (CHIP), His-tagged, wild type, Q9UNE7.
T2 chain: T1 chain with A30K
Kind of assay: competition binding assay on microtitre wells (luminometer, anti-CHIP antibody). Conditions: chain shown with the change; signal is His-CHIP wt remaining bound to immobilized GST-IRF-1 in the presence of 5 uM peptide (highest dose); lower signal = more competition by the peptide …; parent: est. 0.05; read off a plot.

Numbering of substitutions follows the chain as printed. Names may count otherwise.

B1: Carboxy-terminus of Hsc70-interacting protein (CHIP), untagged, K30A mutant, Q9UNE7 1-303 (enzyme)
chain: T1 chain
The term stoichiometry N denotes the number of molecules, sites or subunits per partner or assembly. Take B1: the stoichiometry N in assay [1] is 2.

In the case of SGSGGAAAEEVD, the response in assay [2] was 1.2 RLU.
